Tests used:
[1] = biological target: T1, Gremlin-1 (GREM1), recombinant human (Homo sapiens, UniProt O60565 O60565:25-184); assay: ELONA; room temperature, PBS; biotinylated aptamer, streptavidin-HRP; conditions: label: biotin
T1 sequence: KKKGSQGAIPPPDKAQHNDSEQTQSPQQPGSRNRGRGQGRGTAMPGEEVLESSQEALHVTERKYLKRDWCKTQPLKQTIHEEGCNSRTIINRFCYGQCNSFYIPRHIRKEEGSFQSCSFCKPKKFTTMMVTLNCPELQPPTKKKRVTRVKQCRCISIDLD

[2] = biological target: Serum albumin (HSA) (Homo sapiens, UniProt P02768 P02768:25-609); assay: ELONA; plate coated with 30 nM HSA; figure legend says bovine serum albumin; conditions: tags: Sigma Aldrich; label: biotin
Chain of Serum albumin (HSA) (P02768 25-609, one chain of several): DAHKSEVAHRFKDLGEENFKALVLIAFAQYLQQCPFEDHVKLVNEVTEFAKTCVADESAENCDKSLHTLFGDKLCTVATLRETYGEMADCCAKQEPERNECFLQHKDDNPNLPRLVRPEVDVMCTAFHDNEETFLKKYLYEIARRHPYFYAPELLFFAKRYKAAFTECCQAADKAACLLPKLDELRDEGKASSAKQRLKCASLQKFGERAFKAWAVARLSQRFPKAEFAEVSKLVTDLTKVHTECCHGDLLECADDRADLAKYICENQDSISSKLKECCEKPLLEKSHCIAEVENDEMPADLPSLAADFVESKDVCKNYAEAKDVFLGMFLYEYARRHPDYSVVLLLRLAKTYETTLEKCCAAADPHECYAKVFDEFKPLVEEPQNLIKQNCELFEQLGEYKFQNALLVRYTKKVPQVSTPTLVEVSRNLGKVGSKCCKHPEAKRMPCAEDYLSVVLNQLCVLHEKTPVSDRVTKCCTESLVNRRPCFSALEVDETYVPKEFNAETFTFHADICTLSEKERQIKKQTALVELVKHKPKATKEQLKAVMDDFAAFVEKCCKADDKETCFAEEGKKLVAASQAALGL
Protocol: For ELONA, wells of a 96-well High Binding microplate (Nunc MaxiSorp) were left uncoated or coated with exosomes (4 μg) o.n. All the subsequent steps were performed at room temperature. Following incubation, the plate was blocked with 300 μl 3% BSA (AppliChem) in PBS for 2 hours and incubated with 100 μL biotinylated aptamers (Tebu-bio), dissolved in PBS for 2 hours. Then the plate was washed three times with 300 μl PBS and streptavidin-HPR dissolved in 100 μl PBS (Sigma Aldrich) was added with dilution 1:10000. After 1 hour of incubation, the plate was washed three times before the addition of the TMB developing solution. The reaction was stopped with 0.16 M sulfuric acid and signal strength was analyzed by measuring absorbance at 450 nm with a microplate reader (Thermo Scientific).
MDA-MB-231-derived exosomes and increasing concentrations of aptamer (ex-50.T or control) were used to calculate the binding affinity. The Kd was determined by means of GraphPad Prism. To verify the binding on human serum alumina (HSA), the plate coating was performed at 30 nM HSA (Sigma Aldrich).

B1: ex-50.T (ssRNA)
RNA: UGUGGCAGUUAAGAAUAGAUCUUCGCUGCGAUU
modifications: 2'-F pyrimidines (2'-F-C, 2'-F-U; per library chemistry)
In the case of B1, the Kd [1] is reported as 37.7 nM and the binding result [2] is reported as “no binding”.

Reference: patent US20230227832, “ANTICANCER APTAMERS AND USES THEREOF” (CONSIGLIO NAZIONALE DELLE RICERCHE, published 2023)
